Laboratory results as given in patent publication US10487337B2, “Methods for monocot plant improvement” (Agresearch Limited, priority 2014, dated 2019).

Molecular target: T1, BZR1 (Arabidopsis thaliana, UniProt Q8S307)
T1 construct: expressed in transfected cells; host or cells: Nicotiana benthamiana leaves (Agrobacterium infiltration)
T1 sequence (Q8S307 1-336): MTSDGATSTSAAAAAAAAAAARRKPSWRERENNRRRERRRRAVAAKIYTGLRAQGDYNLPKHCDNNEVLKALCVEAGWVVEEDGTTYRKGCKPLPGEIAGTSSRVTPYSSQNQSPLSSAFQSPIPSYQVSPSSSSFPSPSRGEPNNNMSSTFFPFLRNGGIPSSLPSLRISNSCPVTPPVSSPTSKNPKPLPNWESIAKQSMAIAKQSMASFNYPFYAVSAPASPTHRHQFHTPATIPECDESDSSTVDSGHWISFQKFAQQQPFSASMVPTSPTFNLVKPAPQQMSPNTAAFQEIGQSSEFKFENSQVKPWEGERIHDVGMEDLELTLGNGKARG
Assay: BiFC interaction with BZR1 in Nicotiana benthamiana leaves
Type: cell-based
Excerpt: The binary BiFC-Gateway YFP vectors pDEST-VYNE(R)^GW (Venus aa 1-173) and pDEST-VYCE(R)^GW (Venus aa 156-239) with N-terminal fusions, were used to construct the following vectors; pDESTnYFP-BZR1, pDESTnYFP-NINJA, pDESTnYFP-PPD1, pDESTcYFP-BZR1, pDESTcYFP-PPD1, pDESTcYFP-PPD1Δppd, pDESTcYFP-PPD1Δtify and pDESTcYFP-PPD1Δjas*. For transient in planta expression of proteins interacting with PPD1 or BZR, NINJA and TPL were Gateway® sub-cloned into pRSh1, to construct pRSh1-NINJA and pRSh1-TPL. Plasmids for co-immunoprecipitation: A synthesised DNA construct encoding PPD1 with a 3×c-myc C-terminal fusion was sub-cloned into pRSh1 to produce pRSh1-PPD1-3×c-myc, while the NINJA cDNA sequence was sub-cloned into pB7FWG2,0 (Karimi et al 2002, Trends Plant Sci. 7, 193-195) to construct pB7FWG2-NINJA-GFP. When expressed these constructs produced proteins listed in sequences 60, 62, 70 71 72 73 74 75 76 77 78 79: including TOPLESS (TPL), NINJA, Bimolecular Fluorescence (BiFC) nYFP, BiFC cYFP, BiFC nYFP-NINJA, BiFC nYFP-BZR1, BiFC cYFP-PPD1, BiFC cYFP-NINJA, BiFC cYFP-BZR1, BiFC cYFP-PPD1-ppd, BiFC cYFP-PPD1-tify, BiFC cYFP-PPD1-jas*.
Transient BiFC experiments were performed using combinations of pDESTnYFP and pDESTcYFP plasmids, with or without plasmids for the expression of NINJA (pRSh1-NINJA) or TPL (pRSh1-TPL) and Agrobacterium-infiltration of Nicotiana benthamiana leaves. For infiltration Agrobacterium tumefaciens GV3101 strains containing the binary vectors were re-suspended from plates and prepared for transformation as described for the LUC assay. All YFP and expression strains were mixed in ratios of 1:1 (vol/vol) with the addition of strain P19 at 1/10th volume. Five leaf discs were sampled from each infiltrated leaf after 40 h. Two hours prior to sampling for microscopic fluorescence observations leaves were infiltrated with a 1 μg/ml DAPI solution to stain nuclei. YFP fluorescence and DAPI staining was detected using an Olympus Fluoview FV10i confocal laser scanning microscope. Each experiment was repeated twice.

B1: PPD1: PEAPOD 1 protein of Arabidopsis thaliana, SEQ ID NO: 1 (protein, listed as Arabidopsis thaliana)
chain: MDVGVSPAKSILAKPLKLLTEEDISQLTREDCRKFLKDKGMRRPSWNKSQAIQQVLSLKALYEPGDDSGAGIFRKILVSQPVNPPRVTTTLIEPSNELEACGRVSYPEDNGACHRMDSPRSAEFSGGSGHFVSEKDGHKTTISPRSPAETSELVGQMTIFYSGKVNVYDGIPPEKARSIMHFAANPIDLPENGIFASSRMISKLISKEKMMELPQKGLEKANSSRDSGMEGQANRKVSLQRYREKRKDRKFSKAKKCPGVASSSLEMFLNCQPRMKAAYSQNLGCTGSPLHSQSPESQTKSPNLSVDLNSEGI
Fully expanded leaves, co-expression of NINJA
  interaction with BZR1: restored
Pavement cells of immature Nicotiana benthamiana leaves
  interaction with BZR1: appears to interact with BZR1 in the nucleus
